Data set [1] addresses T1, latent recombinant cgAUS1 (pro-cgAUS1) (Coreopsis grandiflora, UniProt A0A075DN54).
T1 construct: heterologously expressed latent pro-enzyme with C-terminal shielding domain
T1 sequence (A0A075DN54 86-602): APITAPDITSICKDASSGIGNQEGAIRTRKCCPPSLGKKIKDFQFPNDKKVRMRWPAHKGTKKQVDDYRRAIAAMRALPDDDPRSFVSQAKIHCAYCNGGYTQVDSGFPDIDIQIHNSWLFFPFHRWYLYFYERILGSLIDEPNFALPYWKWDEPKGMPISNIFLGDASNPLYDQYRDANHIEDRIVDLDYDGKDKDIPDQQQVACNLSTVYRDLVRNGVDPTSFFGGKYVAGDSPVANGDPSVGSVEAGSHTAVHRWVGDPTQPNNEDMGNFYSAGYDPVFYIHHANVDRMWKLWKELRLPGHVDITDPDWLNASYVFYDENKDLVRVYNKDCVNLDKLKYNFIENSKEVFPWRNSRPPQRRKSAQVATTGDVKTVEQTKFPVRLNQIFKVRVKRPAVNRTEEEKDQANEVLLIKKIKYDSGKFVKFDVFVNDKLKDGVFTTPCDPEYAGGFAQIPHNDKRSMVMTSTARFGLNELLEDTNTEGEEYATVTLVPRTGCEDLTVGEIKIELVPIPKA
The data set is described as follows: spectrophotometric pH profile. Conditions: 25 µM butein, 125 mM sodium citrate, pH 3.5 to 7.4; no allosteric activation. The data set is classed as biochemical.

A further data set has as its system T2, CC(C)(C)c1ccc(O)c(O)c1.
T2 construct: main core API-IENSKE plus disulfide-linked C-terminal peptide D438-G452; partly phosphorylated or sulfated at Tyr230
The data set is described as follows: purified protein. The data set is classed as biochemical, Coreopsis grandiflora. The following applies: pH 5.5, suicide substrate.

The test system of data set [2] is T3, O=C(/C=C/c1ccc(O)c(O)c1)c1ccc(O)cc1O.
T3 construct: main core API-IENSKE plus disulfide-linked C-terminal peptide D438-G452; partly phosphorylated or sulfated at Tyr230
Nature of the data set: purified protein. The data set is classed as biochemical, Coreopsis grandiflora. The following applies: pH 5.5, diphenolase, butein to sulfuretin.

For the next data set, the system named is T4, Cc1ccc(O)c(O)c1.
T4 construct: main core API-IENSKE plus disulfide-linked C-terminal peptide D438-G452; partly phosphorylated or sulfated at Tyr230
The data set is described as follows: purified protein. The class given is biochemical, Coreopsis grandiflora. Conditions: pH 5.5, suicide substrate.

The subject of a further data set is T5, Oc1ccccc1O.
T5 construct: main core API-IENSKE plus disulfide-linked C-terminal peptide D438-G452; partly phosphorylated or sulfated at Tyr230
The data set is described as follows: purified protein. The class given is biochemical, Coreopsis grandiflora. The following applies: pH 5.5.

As for `O=C(/C=C/c1ccc(O)c(O)c1)c1ccc(O)cc1O` [Butein], in data set [1], the “spectrophotometric pH profile” value was “pH optimum of recombinant pro-cgAUS1 (filled triangle, dashed lines) and active cgAUS1”.
Take “active cgAUS1 (aurone synthase), sample 1 (Coreopsis grandiflora; DEL436-522)”: in the data set with CC(C)(C)c1ccc(O)c(O)c1, the Km is 504 ± 20 µM, the maximum rate (Vmax) came out at 2260 ± 23 µmol/min/mg and the kcat came to 1560 ± 16 s⁻¹. In data set [2], the Km came to 52 ± 3 µM, the Vmax is 489 µmol/min/mg, the kcat was 464 ± 16 s⁻¹ and the kcat/Km came out at 8.93e+06 ± 649000 M⁻¹ s⁻¹. For the same compound, in the data set with Cc1ccc(O)c(O)c1, the Michaelis constant (Km) was determined as 3110 ± 120 µM, the Vmax was determined as 2300 ± 39 µmol/min/mg, the turnover number (kcat) is 1590 ± 27 s⁻¹ and the kcat/Km is 512000 ± 22000 M⁻¹ s⁻¹. Further, in the data set on Oc1ccccc1O, the Michaelis constant (Km) is 4040 ± 690 µM, the kcat was found to be 869 ± 41 s⁻¹ and the kcat/Km turned out to be 215000 ± 38000 M⁻¹ s⁻¹.

The record behind these values is PMC4540782, “Latent and active aurone synthase from petals of C. grandiflora: a polyphenol oxidase with unique characteristics” (Planta, 2015).
